Laboratory results as given in US20110269944.

Tests used:
[1] = tested on: HGF-G1 precursor protein (HGF-NG with Leu488-Arg489 at the C-terminus of the α chain converted into His-Tyr)
[2] = tested on: HGF-NG precursor protein (5-amino-acid-deleted-type/glycosylation-deficient human HGF with the natural α chain-β chain boundary sequence Arg489-Val490)
[3] = tested on: HGF-G2 precursor protein (HGF-NG with Arg489-Val490 converted into Tyr-His)
[4] = tested on: HGF-G3 precursor protein (HGF-NG with Lys-Thr-Lys-Gln-Leu-Arg at 484-489 converted into Pro-Gly-Ala-Ala-His-Tyr)
HGF-G3 precursor protein (HGF-NG with Lys-Thr-Lys-Gln-Leu-Arg at 484-489 converted into Pro-Gly-Ala-Ala-His-Tyr), sequence (chain, as listed by the source): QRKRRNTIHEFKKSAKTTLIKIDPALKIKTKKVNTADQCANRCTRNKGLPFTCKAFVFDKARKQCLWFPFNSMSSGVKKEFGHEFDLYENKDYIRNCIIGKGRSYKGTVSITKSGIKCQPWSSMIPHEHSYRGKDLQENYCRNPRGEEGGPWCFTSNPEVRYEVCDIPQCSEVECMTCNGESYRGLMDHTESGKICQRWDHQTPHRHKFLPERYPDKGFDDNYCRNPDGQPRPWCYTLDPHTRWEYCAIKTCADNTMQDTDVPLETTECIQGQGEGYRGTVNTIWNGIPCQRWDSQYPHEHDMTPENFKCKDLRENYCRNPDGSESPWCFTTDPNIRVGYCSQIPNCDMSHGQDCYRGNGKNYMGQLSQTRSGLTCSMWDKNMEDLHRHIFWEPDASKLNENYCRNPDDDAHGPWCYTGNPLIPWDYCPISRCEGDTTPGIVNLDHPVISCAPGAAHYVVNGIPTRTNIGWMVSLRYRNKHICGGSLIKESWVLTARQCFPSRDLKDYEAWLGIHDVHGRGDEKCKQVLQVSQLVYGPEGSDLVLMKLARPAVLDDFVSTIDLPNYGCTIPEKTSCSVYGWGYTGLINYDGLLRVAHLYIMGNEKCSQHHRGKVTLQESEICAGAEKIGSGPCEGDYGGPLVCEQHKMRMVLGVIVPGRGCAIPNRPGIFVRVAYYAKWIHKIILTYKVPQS

HGF-G2 precursor protein (HGF-NG with Arg489-Val490 converted into Tyr-His), sequence (chain, as listed by the source): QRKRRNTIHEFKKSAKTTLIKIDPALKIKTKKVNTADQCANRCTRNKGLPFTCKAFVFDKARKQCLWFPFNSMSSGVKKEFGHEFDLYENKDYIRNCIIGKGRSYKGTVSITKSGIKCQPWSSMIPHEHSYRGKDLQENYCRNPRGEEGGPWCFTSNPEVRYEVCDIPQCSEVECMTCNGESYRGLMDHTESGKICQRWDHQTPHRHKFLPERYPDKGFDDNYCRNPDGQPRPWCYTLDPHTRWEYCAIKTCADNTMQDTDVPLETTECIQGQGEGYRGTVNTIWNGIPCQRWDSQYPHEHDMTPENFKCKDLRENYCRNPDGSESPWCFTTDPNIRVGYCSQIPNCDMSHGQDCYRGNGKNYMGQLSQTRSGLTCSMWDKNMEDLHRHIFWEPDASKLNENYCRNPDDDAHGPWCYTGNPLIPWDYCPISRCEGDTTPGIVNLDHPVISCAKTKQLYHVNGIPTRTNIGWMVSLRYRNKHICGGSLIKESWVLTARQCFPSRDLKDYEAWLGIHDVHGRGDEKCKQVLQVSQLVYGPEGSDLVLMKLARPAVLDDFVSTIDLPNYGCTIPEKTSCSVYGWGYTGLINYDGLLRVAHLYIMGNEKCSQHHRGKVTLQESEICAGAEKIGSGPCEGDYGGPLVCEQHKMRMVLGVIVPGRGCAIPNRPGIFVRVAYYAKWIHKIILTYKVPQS
HGF-NG precursor protein (5-amino-acid-deleted-type/glycosylation-deficient human HGF with the natural α chain-β chain boundary sequence Arg489-Val490), sequence (chain, as listed by the source, stated change not applied): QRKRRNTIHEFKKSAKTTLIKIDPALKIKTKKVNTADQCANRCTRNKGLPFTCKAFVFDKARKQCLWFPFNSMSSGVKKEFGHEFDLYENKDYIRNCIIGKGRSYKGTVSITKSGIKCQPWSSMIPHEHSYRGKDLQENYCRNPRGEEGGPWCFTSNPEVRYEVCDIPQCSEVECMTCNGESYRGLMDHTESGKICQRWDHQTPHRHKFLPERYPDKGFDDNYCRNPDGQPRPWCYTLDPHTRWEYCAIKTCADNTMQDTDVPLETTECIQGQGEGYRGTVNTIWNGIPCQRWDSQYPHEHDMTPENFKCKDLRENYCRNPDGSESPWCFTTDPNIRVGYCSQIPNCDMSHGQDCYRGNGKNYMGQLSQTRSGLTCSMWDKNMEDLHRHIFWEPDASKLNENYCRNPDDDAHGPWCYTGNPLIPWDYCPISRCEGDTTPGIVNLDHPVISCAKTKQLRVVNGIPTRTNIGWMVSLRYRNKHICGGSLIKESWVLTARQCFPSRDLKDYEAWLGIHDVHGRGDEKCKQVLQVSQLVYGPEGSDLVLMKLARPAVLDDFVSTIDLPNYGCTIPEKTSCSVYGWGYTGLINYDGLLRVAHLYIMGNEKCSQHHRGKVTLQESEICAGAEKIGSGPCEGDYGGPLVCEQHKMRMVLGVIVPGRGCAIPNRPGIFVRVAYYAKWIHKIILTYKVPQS
HGF-G1 precursor protein (HGF-NG with Leu488-Arg489 at the C-terminus of the α chain converted into His-Tyr), sequence (chain, as listed by the source): as the sequence (chain, as listed by the source, stated change not applied) above, with L457H, R458Y counted along it

## Genenase I (made by New England Laboratory)
[1]
  cleavage of the single-stranded precursor into α and β chain bands (western blot, reducing SDS-PAGE): after Genenase I treatment, bands were detected at the same positions as those of the α chain and β chain of HGF-NG
[2]
  cleavage of the single-stranded precursor (western blot, reducing SDS-PAGE): HGF-NG precursor protein having a natural α chain-β chain boundary sequence was not cleaved by Genenase I
[3]
  cleavage of the single-stranded precursor into α and β chain bands (western blot, reducing SDS-PAGE): after Genenase I treatment, bands were detected at the same positions as those of the α chain and β chain of HGF-NG
[4]
  cleavage of the single-stranded precursor into α and β chain bands (western blot, reducing SDS-PAGE): after Genenase I treatment, bands were detected at the same positions as those of the α chain and β chain of HGF-NG
